What follows are substances tested on peptide library, one residue held at a place counted from the S/T acceptor (assay: relative phosphorylation of the sub-library (ratio to the mean residue at this position); human; higher = residue favoured). Settings: F fixed; at -2.
Summary of the method: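 Spots on streptavidin membranes were phosphorimaged and quantified by densitometry to measure phosphorylation of biotinylated degenerate peptide sub-libraries by purified recombinant kinases, human or orthologue constructs. The reactions ran in 384-well plates for 90 min under kinase-specific conditions, with peptides at 50 μM and 50 μM ATP spiked with γ-32P-ATP. Relative sub-library phosphorylation is the ratio to the mean residue at that position.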

PAK1, construct: aa150-end, sequence (Q13153 150-545, looked up): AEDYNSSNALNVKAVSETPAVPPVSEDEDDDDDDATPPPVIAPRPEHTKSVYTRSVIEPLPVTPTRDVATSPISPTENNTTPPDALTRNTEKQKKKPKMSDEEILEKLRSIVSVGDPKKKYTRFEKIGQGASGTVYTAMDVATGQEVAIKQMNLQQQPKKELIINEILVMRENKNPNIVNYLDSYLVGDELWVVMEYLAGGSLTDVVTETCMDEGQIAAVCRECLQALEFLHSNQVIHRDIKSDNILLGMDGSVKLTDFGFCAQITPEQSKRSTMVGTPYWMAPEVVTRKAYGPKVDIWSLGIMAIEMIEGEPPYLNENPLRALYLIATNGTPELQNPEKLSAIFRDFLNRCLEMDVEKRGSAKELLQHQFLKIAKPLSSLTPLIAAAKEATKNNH
CSNK1A1L, construct: Full length, sequence (Q8N752 whole entry, looked up): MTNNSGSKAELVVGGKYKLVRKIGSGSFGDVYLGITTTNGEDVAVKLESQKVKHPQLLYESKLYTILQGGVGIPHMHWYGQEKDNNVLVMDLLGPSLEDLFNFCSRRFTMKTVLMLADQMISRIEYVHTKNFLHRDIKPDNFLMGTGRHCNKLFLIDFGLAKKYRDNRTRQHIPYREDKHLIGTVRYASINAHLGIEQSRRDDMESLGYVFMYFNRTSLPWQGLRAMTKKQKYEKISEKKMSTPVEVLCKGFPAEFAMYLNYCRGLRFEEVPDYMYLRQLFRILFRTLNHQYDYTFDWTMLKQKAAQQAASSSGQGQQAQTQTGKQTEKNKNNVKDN
TSSK1B, construct: Full length, sequence (Q9BXA7 whole entry, looked up): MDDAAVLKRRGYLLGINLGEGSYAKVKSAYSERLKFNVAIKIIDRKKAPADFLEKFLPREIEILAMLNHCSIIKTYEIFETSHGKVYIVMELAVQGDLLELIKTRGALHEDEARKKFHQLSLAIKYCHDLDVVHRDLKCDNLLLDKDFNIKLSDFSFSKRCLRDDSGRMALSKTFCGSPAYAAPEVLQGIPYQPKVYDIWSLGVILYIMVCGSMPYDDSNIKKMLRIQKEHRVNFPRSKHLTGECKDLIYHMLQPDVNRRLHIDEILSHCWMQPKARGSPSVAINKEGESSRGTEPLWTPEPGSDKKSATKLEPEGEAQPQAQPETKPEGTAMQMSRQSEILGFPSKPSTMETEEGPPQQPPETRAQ
CSNK1G3, construct: Full length, sequence (Q9Y6M4 whole entry, looked up): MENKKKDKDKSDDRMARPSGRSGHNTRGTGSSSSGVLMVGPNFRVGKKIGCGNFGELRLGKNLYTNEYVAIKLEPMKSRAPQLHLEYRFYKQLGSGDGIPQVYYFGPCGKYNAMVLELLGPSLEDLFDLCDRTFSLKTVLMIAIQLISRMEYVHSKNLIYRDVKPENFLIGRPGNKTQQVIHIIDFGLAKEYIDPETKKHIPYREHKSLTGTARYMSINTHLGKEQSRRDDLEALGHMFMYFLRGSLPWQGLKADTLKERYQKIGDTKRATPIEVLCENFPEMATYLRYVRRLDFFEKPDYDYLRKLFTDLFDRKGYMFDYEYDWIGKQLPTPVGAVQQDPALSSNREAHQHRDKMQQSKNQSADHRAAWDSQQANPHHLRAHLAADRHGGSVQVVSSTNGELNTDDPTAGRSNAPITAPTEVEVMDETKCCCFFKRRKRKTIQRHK
ACVR1B, construct: aa150-end, sequence (P36896 150-505, looked up): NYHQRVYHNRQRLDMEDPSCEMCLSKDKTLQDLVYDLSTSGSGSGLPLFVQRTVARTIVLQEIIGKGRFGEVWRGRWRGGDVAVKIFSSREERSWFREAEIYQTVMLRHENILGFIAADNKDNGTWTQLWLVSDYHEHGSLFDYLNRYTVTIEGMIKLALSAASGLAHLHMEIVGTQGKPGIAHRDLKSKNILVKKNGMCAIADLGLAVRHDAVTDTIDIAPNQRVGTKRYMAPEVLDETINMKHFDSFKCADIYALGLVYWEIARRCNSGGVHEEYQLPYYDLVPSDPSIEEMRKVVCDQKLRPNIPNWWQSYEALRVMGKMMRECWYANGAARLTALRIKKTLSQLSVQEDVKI
CAMK2D, construct: Full length, sequence (Q13557 whole entry, looked up): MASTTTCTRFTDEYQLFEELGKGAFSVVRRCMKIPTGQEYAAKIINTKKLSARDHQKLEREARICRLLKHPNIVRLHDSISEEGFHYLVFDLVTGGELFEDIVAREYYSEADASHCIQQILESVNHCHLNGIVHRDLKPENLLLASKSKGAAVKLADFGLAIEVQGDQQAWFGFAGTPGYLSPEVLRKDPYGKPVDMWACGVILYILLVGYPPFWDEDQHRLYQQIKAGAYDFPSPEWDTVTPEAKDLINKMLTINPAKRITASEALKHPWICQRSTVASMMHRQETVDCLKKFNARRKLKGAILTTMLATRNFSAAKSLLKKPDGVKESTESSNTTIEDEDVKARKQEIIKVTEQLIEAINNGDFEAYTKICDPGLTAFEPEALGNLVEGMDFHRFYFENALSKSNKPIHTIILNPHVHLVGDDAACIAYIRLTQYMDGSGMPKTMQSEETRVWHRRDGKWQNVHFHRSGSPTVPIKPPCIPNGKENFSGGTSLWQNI
CDKL1, construct: aa2-304, sequence (Q00532 2-304, looked up): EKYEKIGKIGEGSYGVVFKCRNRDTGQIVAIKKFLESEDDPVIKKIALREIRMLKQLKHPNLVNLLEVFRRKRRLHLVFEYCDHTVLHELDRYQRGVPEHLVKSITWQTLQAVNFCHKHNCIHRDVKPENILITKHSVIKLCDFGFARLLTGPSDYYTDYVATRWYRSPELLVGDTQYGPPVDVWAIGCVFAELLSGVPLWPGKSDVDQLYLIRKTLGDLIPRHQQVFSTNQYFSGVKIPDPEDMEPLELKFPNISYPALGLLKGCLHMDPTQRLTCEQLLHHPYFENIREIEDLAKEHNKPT
CIT, construct: aa1-449, sequence (O14578 1-449, looked up): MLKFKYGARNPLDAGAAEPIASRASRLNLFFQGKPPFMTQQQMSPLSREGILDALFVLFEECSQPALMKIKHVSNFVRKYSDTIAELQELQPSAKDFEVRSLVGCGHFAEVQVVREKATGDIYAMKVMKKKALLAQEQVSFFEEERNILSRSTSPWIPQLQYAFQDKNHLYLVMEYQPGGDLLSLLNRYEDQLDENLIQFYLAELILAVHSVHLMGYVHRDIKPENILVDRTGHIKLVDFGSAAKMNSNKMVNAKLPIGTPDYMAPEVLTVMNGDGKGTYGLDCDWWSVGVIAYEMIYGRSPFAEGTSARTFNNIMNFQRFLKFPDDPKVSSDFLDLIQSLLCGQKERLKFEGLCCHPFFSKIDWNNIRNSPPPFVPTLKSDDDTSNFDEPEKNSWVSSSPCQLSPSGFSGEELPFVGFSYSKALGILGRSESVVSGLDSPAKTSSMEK

Row | Substance | relative phosphorylation
1 | CIT, construct: aa1-449 (from UniProt O14578) | 0.406
2 | PAK1, construct: aa150-end (from UniProt Q13153) | 0.346
3 | CAMK2D, construct: Full length (from UniProt Q13557) | 0.914
4 | CDKL1, construct: aa2-304 (from UniProt Q00532) | 0.724
5 | ACVR1B, construct: aa150-end (from UniProt P36896) | 0.497
6 | TSSK1B, construct: Full length (from UniProt Q9BXA7) | 0.565
7 | CSNK1A1L, construct: Full length (from UniProt Q8N752) | 0.81
8 | CSNK1G3, construct: Full length (from UniProt Q9Y6M4) | 0.576

Same assay, conditions: F fixed; at -3

Row | Substance | relative phosphorylation
9 | CIT, construct: aa1-449 (from UniProt O14578) | 0.259
10 | PAK1, construct: aa150-end (from UniProt Q13153) | 0.464
11 | CAMK2D, construct: Full length (from UniProt Q13557) | 0.887
12 | CDKL1, construct: aa2-304 (from UniProt Q00532) | 0.531
13 | ACVR1B, construct: aa150-end (from UniProt P36896) | 1.03
14 | TSSK1B, construct: Full length (from UniProt Q9BXA7) | 0.497
15 | CSNK1A1L, construct: Full length (from UniProt Q8N752) | 0.784
16 | CSNK1G3, construct: Full length (from UniProt Q9Y6M4) | 0.522

Same assay, conditions: F fixed; at -4

Row | Substance | relative phosphorylation
17 | CIT, construct: aa1-449 (from UniProt O14578) | 0.622
18 | PAK1, construct: aa150-end (from UniProt Q13153) | 0.633
19 | CAMK2D, construct: Full length (from UniProt Q13557) | 1.22
20 | CDKL1, construct: aa2-304 (from UniProt Q00532) | 0.934
21 | ACVR1B, construct: aa150-end (from UniProt P36896) | 1.02
22 | TSSK1B, construct: Full length (from UniProt Q9BXA7) | 0.643
23 | CSNK1A1L, construct: Full length (from UniProt Q8N752) | 0.965
24 | CSNK1G3, construct: Full length (from UniProt Q9Y6M4) | 1.07

Same assay, conditions: F fixed; at -5

Row | Substance | relative phosphorylation
25 | CIT, construct: aa1-449 (from UniProt O14578) | 0.767
26 | PAK1, construct: aa150-end (from UniProt Q13153) | 0.68
27 | CAMK2D, construct: Full length (from UniProt Q13557) | 1.38
28 | CDKL1, construct: aa2-304 (from UniProt Q00532) | 1.21
29 | ACVR1B, construct: aa150-end (from UniProt P36896) | 1.13
30 | TSSK1B, construct: Full length (from UniProt Q9BXA7) | 0.99
31 | CSNK1A1L, construct: Full length (from UniProt Q8N752) | 1.27
32 | CSNK1G3, construct: Full length (from UniProt Q9Y6M4) | 0.859

Same assay, conditions: G fixed; at +1

Row | Substance | relative phosphorylation
33 | CIT, construct: aa1-449 (from UniProt O14578) | 0.937
34 | PAK1, construct: aa150-end (from UniProt Q13153) | 0.895
35 | CAMK2D, construct: Full length (from UniProt Q13557) | 0.609
36 | CDKL1, construct: aa2-304 (from UniProt Q00532) | 1.15
37 | ACVR1B, construct: aa150-end (from UniProt P36896) | 0.796
38 | TSSK1B, construct: Full length (from UniProt Q9BXA7) | 0.884
39 | CSNK1A1L, construct: Full length (from UniProt Q8N752) | 0.849
40 | CSNK1G3, construct: Full length (from UniProt Q9Y6M4) | 0.459

Same assay, conditions: G fixed; at +2

Row | Substance | relative phosphorylation
41 | CIT, construct: aa1-449 (from UniProt O14578) | 2.04
42 | PAK1, construct: aa150-end (from UniProt Q13153) | 0.726
43 | CAMK2D, construct: Full length (from UniProt Q13557) | 1.06
44 | CDKL1, construct: aa2-304 (from UniProt Q00532) | 0.764
45 | ACVR1B, construct: aa150-end (from UniProt P36896) | 0.995
46 | TSSK1B, construct: Full length (from UniProt Q9BXA7) | 1.4
47 | CSNK1A1L, construct: Full length (from UniProt Q8N752) | 0.885
48 | CSNK1G3, construct: Full length (from UniProt Q9Y6M4) | 0.67

Same assay, conditions: G fixed; at +3

Row | Substance | relative phosphorylation
49 | CIT, construct: aa1-449 (from UniProt O14578) | 1.1
50 | PAK1, construct: aa150-end (from UniProt Q13153) | 1.22
51 | CAMK2D, construct: Full length (from UniProt Q13557) | 1.51
52 | CDKL1, construct: aa2-304 (from UniProt Q00532) | 0.865
53 | ACVR1B, construct: aa150-end (from UniProt P36896) | 1.22
54 | TSSK1B, construct: Full length (from UniProt Q9BXA7) | 0.809
55 | CSNK1A1L, construct: Full length (from UniProt Q8N752) | 1.07
56 | CSNK1G3, construct: Full length (from UniProt Q9Y6M4) | 0.931

Same assay, conditions: G fixed; at +4

Row | Substance | relative phosphorylation
57 | CIT, construct: aa1-449 (from UniProt O14578) | 1.13
58 | PAK1, construct: aa150-end (from UniProt Q13153) | 1.24
59 | CAMK2D, construct: Full length (from UniProt Q13557) | 1.38
60 | CDKL1, construct: aa2-304 (from UniProt Q00532) | 1.04
61 | ACVR1B, construct: aa150-end (from UniProt P36896) | 0.798
62 | TSSK1B, construct: Full length (from UniProt Q9BXA7) | 0.639
63 | CSNK1A1L, construct: Full length (from UniProt Q8N752) | 0.992
64 | CSNK1G3, construct: Full length (from UniProt Q9Y6M4) | 1.07

Same assay, conditions: G fixed; at -1

Row | Substance | relative phosphorylation
65 | CIT, construct: aa1-449 (from UniProt O14578) | 0.905
66 | PAK1, construct: aa150-end (from UniProt Q13153) | 0.782
67 | CAMK2D, construct: Full length (from UniProt Q13557) | 1.17
68 | CDKL1, construct: aa2-304 (from UniProt Q00532) | 1.56
69 | ACVR1B, construct: aa150-end (from UniProt P36896) | 0.65
70 | TSSK1B, construct: Full length (from UniProt Q9BXA7) | 1.08
71 | CSNK1A1L, construct: Full length (from UniProt Q8N752) | 1.21
72 | CSNK1G3, construct: Full length (from UniProt Q9Y6M4) | 0.635

Same assay, conditions: G fixed; at -2

Row | Substance | relative phosphorylation
73 | CIT, construct: aa1-449 (from UniProt O14578) | 0.435
74 | PAK1, construct: aa150-end (from UniProt Q13153) | 0.526
75 | CAMK2D, construct: Full length (from UniProt Q13557) | 1.41
76 | CDKL1, construct: aa2-304 (from UniProt Q00532) | 1.01
77 | ACVR1B, construct: aa150-end (from UniProt P36896) | 0.801
78 | TSSK1B, construct: Full length (from UniProt Q9BXA7) | 1.2
79 | CSNK1A1L, construct: Full length (from UniProt Q8N752) | 0.819
80 | CSNK1G3, construct: Full length (from UniProt Q9Y6M4) | 0.903

Same assay, conditions: G fixed; at -3

Row | Substance | relative phosphorylation
81 | CIT, construct: aa1-449 (from UniProt O14578) | 0.382
82 | PAK1, construct: aa150-end (from UniProt Q13153) | 0.869
83 | CAMK2D, construct: Full length (from UniProt Q13557) | 0.814
84 | CDKL1, construct: aa2-304 (from UniProt Q00532) | 0.617
85 | ACVR1B, construct: aa150-end (from UniProt P36896) | 1.12
86 | TSSK1B, construct: Full length (from UniProt Q9BXA7) | 1.08

From the supplement of paper PMC9876800
